Residue numbers refer to the chain shown, from its start.

One may read the IC50 as the point on the concentration scale where inhibition reaches its midpoint. As usually defined, the EC50 is the concentration that produces a half-maximal response.

Experiment [1] deals with T1, recombinant human EpCAM extracellular domain (human, UniProt P16422 24-265).
T1 construct: extracellular domain; Plate-coated antigen of the ELISAs; also called human EpCAM ECD; recombinant EpCAM antigen
T1 sequence (looked up): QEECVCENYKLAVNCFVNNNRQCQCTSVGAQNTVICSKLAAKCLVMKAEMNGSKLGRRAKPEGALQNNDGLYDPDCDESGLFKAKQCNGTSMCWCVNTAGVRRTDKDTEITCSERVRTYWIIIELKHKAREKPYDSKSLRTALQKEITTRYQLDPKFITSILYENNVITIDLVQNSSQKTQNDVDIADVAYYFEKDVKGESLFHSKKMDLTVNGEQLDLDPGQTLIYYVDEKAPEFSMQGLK
In words: ELISA on human EpCAM at pH 6.0 after heating the antibody for 1 h at 4, 37, 45, 55 or 60 C. The method, then: The thermostability of the humanized conditionally active anti-EpCAM antibodies was evaluated by measuring their binding activities after heat treatment. The binding activities of the humanized conditionally active anti-EpCAM antibodies to human EpCAM after heat treatment for one (1) hour at different temperatures at pH 6.0 and pH 7.4 were measured by ELISA.
(§1) The ELISA assay was performed using the following protocol: [0388] 1) Coat ELISA plates with 100 μL of 0.5 μg/mL (06_20_17 and 06_28_17 Experiments) or 1 μg/mL (07_06_17 and 07_11_17 Experiments) recombinant EpCAM antigen in carbonate-bicarbonate coating buffer [0389] 2) Cover plates with sealing film and incubate overnight at 4° C. [0390] 3) Decant plates and tap out residual liquid on a stack of paper towels [0391] […] 5) Add 200 μL of various pH incubation buffers to the wells according to the sample map.

The target in experiment [2] is T1, recombinant human EpCAM extracellular …. In words: direct binding ELISA, human EpCAM; ratio of the printed IC50 at pH 7.4 to pH 6.0. (In general: An ELISA detects its analyte on a solid surface through an enzyme-linked reagent.)
Experiment [3] has the same target. In words: direct binding ELISA, human EpCAM, pH 6.0 (table prints IC50, the text paragraph 376 says EC50).
In experiment [4] the target is T2, cyno EpCAM (recombinant, ELISA antigen) (cynomolgus monkey).
T2 construct: extracellular domain; also called cynomolgus EpCAM extracellular domain
In words: direct binding ELISA, cyno EpCAM; ratio of the printed IC50 at pH 7.4 to pH 6.0.

In experiment [5] the target is T2, cyno EpCAM (recombinant, ELISA antigen). In words: direct binding ELISA, cyno EpCAM, pH 7.4 (printed as IC50).
The target is the same in experiment [6]. In words: direct binding ELISA, cyno EpCAM, pH 6.0 (printed as IC50).
The target of experiment [7] is T1, recombinant human EpCAM extracellular …. Put plainly: direct binding ELISA, human EpCAM, pH 7.4 (table prints IC50, the text paragraph 376 says EC50).
Experiment [8] shares this target. Put plainly: ELISA on human EpCAM, pH range 5.0 to 7.4.
Experiment [9] addresses T3, human EpCAM expressed on cells (CHO, Colo205, 293) (human, UniProt P16422 24-314).
T3 construct: whole, on cells; also called CHO cells expressing human EpCAM; Colo205 cells expressing human EpCAM
T3 sequence (looked up): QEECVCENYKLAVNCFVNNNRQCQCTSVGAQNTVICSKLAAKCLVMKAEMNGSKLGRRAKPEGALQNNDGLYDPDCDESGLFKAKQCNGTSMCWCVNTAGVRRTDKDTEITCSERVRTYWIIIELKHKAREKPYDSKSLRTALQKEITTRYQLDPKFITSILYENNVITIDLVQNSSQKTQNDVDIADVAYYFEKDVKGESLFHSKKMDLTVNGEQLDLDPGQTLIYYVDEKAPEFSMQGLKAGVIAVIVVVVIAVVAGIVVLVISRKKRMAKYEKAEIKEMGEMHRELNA
Put plainly: FACS on Colo205 cells, antibody at 1 ug/mL, pH 6.0 and pH 7.4. How it is done: The binding activity of these anti-EpCAM antibodies to EpCAM expressing Colo205 cells were measured by fluorescence activated cell sorting (FACS) at two different pH values of 6.0 and 7.4. Different dosages of the antibodies of 10 μg/mL, 1 μg/mL, 0.1 μg/mL and 0.01 μg/mL were used.

Experiment [10] concerns the target T3, human EpCAM expressed on cells (CHO, …). Put plainly: FACS on Colo205 cells expressing human EpCAM, pH 7.4. How it is done:
(§2) Binding activities of the humanized conditionally active anti-EpCAM antibodies to Colo205 cells expressing human EpCAM were measured by FACS at pH 6.0 and pH 7.4. […] The EC50 values for binding to the Colo205 cells expressing human EpCAM by the humanized conditionally active anti-EpCAM antibodies are summarized in Table 9.

The target is the same in experiment [11]. In words: FACS on 293 cells expressing human EpCAM, pH 6.0. How it is done:
(§3) A similar FACS analysis was also carried out using 293 cells expressing human EpCAM. […] The EC50 values for binding to the 293 cells expressing human EpCAM by the humanized conditionally active anti-EpCAM antibodies are summarized in Table 10.

The target in experiment [12] is T1, recombinant human EpCAM extracellular …. In words: ELISA, human EpCAM, pH 7.4. How it is done:
(§4) The binding activities of the humanized conditionally active anti-EpCAM antibodies to human EpCAM were measured by ELISA, using the template antibody BAP-1-5-01-06, as a control. The EC50 values of the humanized conditionally active anti-EpCAM antibodies for binding to human EpCAM at pH 6.0 and pH 7.4 are summarized in Table 5.
as §1

Experiment [13] concerns the target T2, cyno EpCAM (recombinant, ELISA antigen). Put plainly: ELISA, cyno EpCAM, pH 6.0. How it is done: (§5) The binding activities of the humanized conditionally active anti-EpCAM antibodies to cyno EpCAM were similarly measured. The EC50 for binding to the cyno EpCAM at pH 6.0 and pH 7.4 for the humanized conditionally active anti-EpCAM antibodies are summarized in Table 7.
as §1

Experiment [14] concerns the target T1, recombinant human EpCAM extracellular …. Put plainly: ELISA, human EpCAM, pH 6.0. How it is done: as §4, §1
The target of experiment [15] is T4, cyno EpCAM expressed on 293 cells (cynomolgus monkey).
T4 construct: whole, on cells; also called 293 cells expressing cyno EpCAM
In words: FACS on 293 cells expressing cyno EpCAM, pH 6.0. How it is done: (§6) A similar FACS analysis was also carried out using 293 cells expressing cyno EpCAM. […] The EC50 values for binding to the 293 cells expressing cyno EpCAM by the humanized conditionally active anti-EpCAM antibodies are summarized in Table 11.

For experiment [16], the target named is T4, cyno EpCAM expressed on 293 cells. In words: FACS on 293 cells expressing cyno EpCAM, pH 7.4. The method, then: as §6
Experiment [17] addresses T3, human EpCAM expressed on cells (CHO, …). In words: FACS on Colo205 cells expressing human EpCAM, pH 6.0. How it is done: as §2
The target in experiment [18] is T2, cyno EpCAM (recombinant, ELISA antigen). In words: ELISA, cyno EpCAM, pH 7.4. The method, then:
as §5, §1

For experiment [19], the target named is T3, human EpCAM expressed on cells (CHO, …). In words: FACS on 293 cells expressing human EpCAM, pH 7.4. How it is done: as §3

T4 sequence (Q1WER1 24-314): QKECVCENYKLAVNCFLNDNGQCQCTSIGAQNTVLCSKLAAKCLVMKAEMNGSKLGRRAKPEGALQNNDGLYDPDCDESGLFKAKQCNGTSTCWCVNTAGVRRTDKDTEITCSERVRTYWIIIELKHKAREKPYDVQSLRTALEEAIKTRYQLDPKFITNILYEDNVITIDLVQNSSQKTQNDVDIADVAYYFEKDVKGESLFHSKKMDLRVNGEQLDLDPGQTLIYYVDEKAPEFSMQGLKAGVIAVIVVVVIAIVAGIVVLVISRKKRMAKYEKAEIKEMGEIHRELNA

B1: 105.4-05-04 (antibody, V domains shown)
VH: EVQLVQSGAEVKKPGATVKISCKVSGYTFTSYWMHWIRQSPSRGLEWLGYIRPSTGYTEYNQKFKDRFTISRDDSKNTAYLQMNSLKTEDTAVYYCGRGDNWVGFANWGQGTLVTVSS
VL: EIVMTQSPATLSVSPGERATLSCSASSSISYMHWYQQKPGKAPKLLIYSTSNLASGVPSRFSGSGSGTDFTLTISSLQPEDFATYYCHQWSTYETFGQGTKVEIK
Turning to B1, in experiment [1], the binding result is given as “binds”.

B2: BA-105-06-02 (antibody, V domains shown)
VH: B1 VH with S40P, S42G, R43K, L48I, D74N, A79L, K87R, T88A
VL: EIVLTQSPDFQSVTPKEKVTITCSASSSISYMHWYQQKPGKAPKLLIYSTSSLASGVPDRFSGSGSGTDFTLKISRVEAEDVGVYYCHQWSTYETFGQGTKVEIK
notes: Humanized
B2: the entries for the “ratio (pH7.4/pH6.0)” value in [2] and in experiment [4] were 2.5 and 4.44, respectively. The 50% inhibitory concentration (IC50) came to 0.105 µg/mL in [3], 0.673 µg/mL in experiment [5], 0.152 µg/mL in [6] and 0.262 µg/mL in [7].

B3: BA-105-06-01 (antibody, V domains shown)
VH: B1 VH with S40P, S42G, R43K, L48I, D74N, A79L, K87R, T88A
VL: B2 VL with S52K
notes: Humanized
For the molecule B3, the “ratio (pH7.4/pH6.0)” value in experiment [2] came to 5.6; in experiment [4], 17.1. In addition, the half-maximal inhibitory concentration (IC50) worked out at 0.0299 µg/mL in [3], 0.0635 µg/mL in [5], 0.00371 µg/mL in [6] and 0.168 µg/mL in experiment [7].

B4: BAP-105-01-03 (antibody, V domains shown)
VH: QVQLQQSGAELAKPGASVKVSCKASGYTFTSYWMHWVKQRPGQGLEWIGYIRPSTGYTEYNQKFKDKATLTADKSSSTAYMQLSSLTFEDSAVYYCGDGDNWVGFANWGQGTLVTVSA
VL: QIVLTQSPAIMSASLGEEIALTCSASSSISYMHWYQQKSGTSPKLLIYSTSNLASGVPSRFSGSGSGTFYSLTISSVEAEDAADYFCHQWSTYHTFGSGTKLEIK
Take B4: the binding result in experiment [8] and in experiment [9] was “binds” throughout.

B5: BAP-105-01-01 (antibody, V domains shown)
VH: B4 VH with D98R
VL: B4 VL
notes: Non-conditionally active control; also called template antibody (WT)
As for B5, the “ratio (pH7.4/pH6.0)” value is 0.72 in [2] and 1.44 in [4]. The EC50 was determined as 0.268 µg/mL in experiment [10]; 0.092 µg/mL in experiment [11]; 0.00781 µg/mL in experiment [12]; 0.0112 µg/mL in [13]; 0.00833 µg/mL in experiment [14]; 0.625 µg/mL in [15]. Moreover, the EC50 in experiment [16] came out at 0.863 µg/mL; in experiment [17], 0.263 µg/mL; in experiment [18] it was 0.3 µg/mL; in [19] it was 0.125 µg/mL. The concentration for half-maximal inhibition (IC50) was determined as 0.0586 µg/mL in experiment [3], 0.0416 µg/mL in [5], 0.0288 µg/mL in experiment [6] and 0.0423 µg/mL in [7].

B6: BAP-105-01-06 (antibody, V domains shown)
VH: B4 VH with D98R
VL: B4 VL with H94E
notes: also called BAP-1-5-01-06
Regarding B6, the binding result in experiment [1] and in experiment [9] was “binds” in each case.

The values above are taken from patent publication US20260053904A1 (BIOATLA, published 2026).
